The values below come from publication PMC6812003 (Redox Biology, 2019).

The target of data set [1] is recombinant p16^INK4A (wild type) (Homo sapiens) (UniProt P42771). Description: non-reducing SDS-PAGE.
The data set “co-IP” concerns the molecule itself. Briefly: co-IP.
Data set [2] has as its target T1, endogenous p16^INK4A (human (endogenous in HEK293T)), P42771.
T1 chain: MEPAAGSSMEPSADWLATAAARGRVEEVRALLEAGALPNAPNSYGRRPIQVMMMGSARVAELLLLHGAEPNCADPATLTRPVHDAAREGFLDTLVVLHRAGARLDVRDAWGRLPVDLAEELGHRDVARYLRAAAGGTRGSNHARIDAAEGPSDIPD
Briefly: co-IP. As to conditions: remark: other sources report otherwise.

Usually stoichiometry N stands for a count of units in the complex or per binding partner. For “recombinant p16^INK4A (wild type) (from UniProt P42771 1-156) (natural protein)”, the stoichiometry N in data set [1] was 2.

B1: FLAG-p16^INK4A (wild type) (natural protein, human, UniProt P42771 9-156, looked up)
chain: MEPSADWLATAAARGRVEEVRALLEAGALPNAPNSYGRRPIQVMMMGSARVAELLLLHGAEPNCADPATLTRPVHDAAREGFLDTLVVLHRAGARLDVRDAWGRLPVDLAEELGHRDVARYLRAAAGGTRGSNHARIDAAEGPSDIPD
For the molecule B1, in the data set “co-IP”, the “stoichiometry N” value was found to be 2.

B2: endogenous p16^INK4A, P42771 1-156 (natural protein)
chain: T1 chain
B2: in data set [2], the stoichiometry N stood at 2.
